The source of these data is the supplement of paper PMC12042874.

± gives the uncertainty stated by the source.

Data set [1] in a line: amyloid nucleation score (Sup35N fusion, yeast selection) (log enrichment); library NNK1; higher = more nucleation; inactive = no reads after selection. A digest of the protocol: (§1)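 Libraries of peptides of 20 random codons fused to Sup35N were expressed in psi-negative yeast and induced 24 hours with 100 μM copper sulfate. Selection was 7 days at 30°C on medium lacking adenine and uracil, and plasmid inserts were Illumina-sequenced before and after selection. Nucleation score is the DiMSum log enrichment of output over input reads, centred on the mode score of non-aggregating sequences, and sequences with under 100 input reads were left out.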

A short description of data set [2]: amyloid nucleation score (Sup35N fusion, yeast selection) (log enrichment); library NNK2; higher = more nucleation; inactive = no reads after selection. A digest of the protocol: as §1
Data set [3] in a line: amyloid nucleation score (Sup35N fusion, yeast selection) (log enrichment); library NNK3; higher = more nucleation; inactive = no reads after selection. A digest of the protocol:
as §1

Turning to DVGSNKGAIIGLMVGGVVIA, the amyloid nucleation score in data set [1] came out at 3.61 ± 0.19; in data set [2] it was 2.4 ± 0.19. GVLLV: the figures for the amyloid nucleation score in data set [1] and in data set [3] were 0.129 ± 0.93 and “inactive”, respectively.

For VVVFDKR, the amyloid nucleation score in data set [1] was -0.041 ± 1.

As for FFVGLPYTNSYHIPHVF, the amyloid nucleation score result in data set [1] is “inactive”. The same measure, in the same setting: in the case of RTLPSG it was -0.12 ± 0.19. Regarding ILREQNSLDTSRFYRGRSLV, in data set [1], the amyloid nucleation score is 0.187 ± 0.65. Still for that read-out and setting: to CYFVCNDHCYFYQSLLQTHE belongs 5.32 ± 0.058; to YNCMEYSDARHKSSTVRLHY, -0.253 ± 0.62.

In turn, KSTSYNLIDIMAGSSLTNNR had an amyloid nucleation score in data set [1] of 0.274 ± 0.28. On to NVMCAGYIIMGATMYKKWVM, for which the amyloid nucleation score in data set [1] was 0.902 ± 0.29. On the same count and under the same terms, in the case of LVLVRFITPVDLAVMNGRLW it was -0.927 ± 0.34; in that of GCVTYIYGCMLYCEEAFR, 5.17 ± 0.085; in that of TYKFGYVHVDTFMTVLMHTL, -0.169 ± 0.31. Same read-out and setting: in the case of GVYARQIFYNS it was 0.021 ± 0.24. Same read-out and setting: to GSVCHILVGWVAYMWVF belongs -1.18 ± 1.2. For the substance NFYSGICMICLGT, in data set [1], the amyloid nucleation score stood at 7.307 ± 0.065. Take MVWSQVQLRIGVMVM: the amyloid nucleation score in data set [1] is -0.562 ± 0.4. In data set [1], TACRLQYSNSYLFLSSAEPV had an amyloid nucleation score of 1.28 ± 0.69.

On to RIAVWSSGSYCMYYTCWCNH, for which the amyloid nucleation score in data set [1] is -0.191 ± 0.24. Same read-out and setting: in the case of ILYVVWFYVLLRWVRVLLLR it was 0.884 ± 0.49; in that of VLDQHPRDFESRGMVMANFY, 1.55 ± 0.24; in that of ATVDGRLIRDVSISCMGYDV, -1.12 ± 2.4. The same measure, in the same setting: in the case of INAQAVIGNFRGRYSVYNVH it was 4.23 ± 0.065; in that of CIVVMGSVAYHGRFYFVDVE, 1.43 ± 0.76; in that of KSYYGSLNLAMSTSLYIQTM, 0.769 ± 0.34. The same measure, in the same setting: to LSRNVVGAFGSGHWRADRAA belongs 0.256 ± 0.64; to DIIWMFWRIINSPFFTQSVV, -0.176 ± 0.26.

With LFVSNMC, the amyloid nucleation score in data set [1] is -1.47 ± 0.91.

Substance MKNFPLYSCP displayed an amyloid nucleation score in data set [1] of -0.66 ± 0.69. In turn, MDFYVLPNCRQNGMLCERSC displayed an amyloid nucleation score in data set [1] of 0.508 ± 0.67.

The substance NWAKGNCYVAFRLKWRYNCG registered an amyloid nucleation score in data set [1] of 0.745 ± 0.74.

As for FMRPVYHYMPSMTSYVSLDT, the amyloid nucleation score result in data set [1] is “inactive”. Same read-out and setting: to TGVTHC belongs “inactive”; to MYVYVQISYFGLHCVWTMYK, -0.032 ± 0.45; to SVNLNFLFAL, 8.056 ± 0.056. On the same count and under the same terms, to WLHGFKWRED belongs -0.541 ± 0.68. With YRYHVSCTYAVSLGAAKSNA, in data set [1], the amyloid nucleation score is -0.078 ± 0.72. In the case of SSEVRMTVVSLGPLMDRPNV, the amyloid nucleation score in data set [1] was -0.243 ± 0.68.

Consider AFNYRSVCWLLGTGSSSWSE, for which, in data set [1], the amyloid nucleation score result was “inactive”. Still for that read-out and setting: to GRSTNSSDISNHMRNS belongs 0.961 ± 0.31; to NIVIIVVSNLN, 3.44 ± 0.082. Still for that read-out and setting: to YMQGAFFQQTPSNLWQEGHY belongs -0.74 ± 0.84. Still for that read-out and setting: to MYAFASSKYEHIS belongs 0.53 ± 0.32; to RGGMF, -0.252 ± 0.67.

RLIFEVFYLTFRVLT gave an amyloid nucleation score in data set [1] of -0.457 ± 0.39. The same measure, in the same setting: to LEYSS belongs -0.145 ± 0.41; to GDVPYRNMHCPRFLMREMVV, 0.354 ± 0.25. On the same count and under the same terms, to FIDRIYSIVYGVGGCMMSLI belongs 0.008 ± 0.47; to ICILLFGVRSDCM, 1.44 ± 0.37; to KLVVKWRGFLEDGDRTLWLV, 3.49 ± 0.13.

In data set [1], CVFYGFWYFGW came in with an amyloid nucleation score of 0.145 ± 0.34. The same measure, in the same setting: in the case of DALII it was 0.257 ± 0.4; in that of FLCHWLYFRNSYGGYVSRW, 1.92 ± 0.4. In turn, RSSWQMSPNMLLTNLNCCSS registered an amyloid nucleation score in data set [1] of 6.367 ± 0.047. On the same count and under the same terms, in the case of VGKITESLLEQLKARHLFCH it was 4.41 ± 0.058. In data set [1], GPPSLYTWTAYCELSRRPEG showed an amyloid nucleation score of 0.515 ± 0.66.

With PHYRTSFVKHPLL, the amyloid nucleation score in data set [1] came to 0.73 ± 0.54. Same read-out and setting: in the case of CYSQDRSRLVSEDYY it was -0.525 ± 0.34; in that of CIVVTLYSIMFRDGS, “inactive”; in that of KLIYLMGPIPWVLRSCWQVF, 0.208 ± 0.37. The same measure, in the same setting: to QVVFE belongs 0.1 ± 0.68; to VLKHCWVGIFAQW, 9.006 ± 0.052; to ENGIGN, 0.453 ± 0.22.

As to YCEYASVVLFGTELCFAWVY, the amyloid nucleation score in data set [1] was 0.001 ± 0.73. The substance RVGNNLNFM displayed an amyloid nucleation score in data set [1] of -0.915 ± 0.3. The same measure, in the same setting: in the case of FSCCILPCSLSHSMVFLGSG it was 8.064 ± 0.08. For the substance NFFCDSISY, the amyloid nucleation score in data set [1] was -0.908 ± 1.1. Same read-out and setting: in the case of YDDTTMYRFWLHFKM it was 0.638 ± 0.3; in that of LVRGVHT, -0.446 ± 0.28. The same measure, in the same setting: to LSPLNVKIDSSFVFYIIRLK belongs -0.178 ± 0.36; to VSLLVSICLLRLSLVSI, 0.259 ± 0.58. Same read-out and setting: in the case of CSAASVCPGD it was -0.116 ± 1.5. In turn, GFLTETDNCTICIFHMFVDN yielded an amyloid nucleation score in data set [1] of 6.201 ± 0.059. As for VIIYLMARSLKVAH, in data set [1], the amyloid nucleation score is 0.453 ± 0.38. Same read-out and setting: in the case of TVRCG it was 0.014 ± 0.97; in that of IGYLDMGNRFGYLLARC, -1.1 ± 0.62. The same measure, in the same setting: to CCGCWYIITKPYSNKVRKCA belongs 0.265 ± 0.73; to VYYYVLSLV, 0.207 ± 1.4; to FNPLRVNYGLWDRSAR, 0.248 ± 0.83. Same read-out and setting: to MTKFCID belongs 0.965 ± 0.66.

Regarding CKMNYGLVLAGSLGVGSGQD, the amyloid nucleation score in data set [1] came to 0.317 ± 0.42.

RDGIMYG returned an amyloid nucleation score in data set [1] of 0.505 ± 0.39. On the same count and under the same terms, in the case of EDPVLSREGCKQVNPWILWG it was 0.201 ± 1.4. Regarding RGAQLIRRSFKTVAGLGFIM, the amyloid nucleation score in data set [1] is -0.767 ± 1.4.

TFSFFDRVLSLFLN returned an amyloid nucleation score in data set [1] of -0.179 ± 0.44. Still for that read-out and setting: in the case of IRGLRVLHSVFLALLVCKNL it was -0.136 ± 0.59. Same read-out and setting: in the case of RSSMPRSWAVWPRWE it was 0.176 ± 0.71; in that of FISRCSFAGSCVK, -1.27 ± 1.7; in that of DWNEEACV, 0.432 ± 0.57. Still for that read-out and setting: in the case of DCQVAVPLRIVKANSVILCG it was 0.26 ± 0.37; in that of KAPNRE, -0.063 ± 0.66; in that of NKCKKYGYLFRLSGYEGHNL, 5.54 ± 0.091.

The substance ADCFNLYGRTFDKFKPPHMD yielded an amyloid nucleation score in data set [1] of 0.631 ± 0.54.

With FSTAM, the amyloid nucleation score in data set [1] was determined as 0.895 ± 0.79. On the same count and under the same terms, in the case of LYPSISGFFCCKWGSVVNGL it was “inactive”.

VIHGC came in with an amyloid nucleation score in data set [1] of -0.14 ± 0.27. Still for that read-out and setting: in the case of EAYFFEFIKYLSAPAGSGGN it was -0.855 ± 0.98; in that of VCDFNVNYMSLVCEIHGT, 0.495 ± 0.56.

ALPCYCPPVQSPCASFGWME yielded an amyloid nucleation score in data set [1] of -0.569 ± 0.29.

In the case of CSGWMNGLSRVKPAHL, in data set [1], the amyloid nucleation score entry was “inactive”. The same measure, in the same setting: to QNHSGPGLMIRILANAQKWF belongs -0.93 ± 2.4. Substance VFGCSGLDKSQWND registered an amyloid nucleation score in data set [1] of 0.434 ± 0.45. Same read-out and setting: to LQYGGQVISLNNR belongs 1.97 ± 0.72; to ISRDNNQTGLMGGLERRTES, 0.533 ± 0.65. Same read-out and setting: in the case of RRCMLLYCGLGAGALGSDGR it was -0.539 ± 1.1.

TAIDITTVLCIICRDPHINL: the amyloid nucleation score in data set [1] is 8.364 ± 0.048. In data set [1], NTCEGGKCSYKVVSFLYLKY had an amyloid nucleation score of 0.497 ± 0.5. Same read-out and setting: to TFTWGRMRSSSVDSCVKSWA belongs 1.2 ± 0.37; to ISLLGIWV, 0.939 ± 0.31; to QRKYNDLFWLTSPFSQSMWM, 0.997 ± 1.1. Consider RNQFDYDRWYVMRSHYRVIC, for which, in data set [1], the amyloid nucleation score is -0.526 ± 0.58. Same read-out and setting: to LKYTVPGLISPGFLGVVDYV belongs -0.624 ± 0.34; to TFYVRDRAGCPW, 1.33 ± 0.73; to FRLDNLRCTWVFRYPIGESS, 1.17 ± 0.73. On the same count and under the same terms, in the case of CRNLFMWDIRRGKYITARKK it was -0.779 ± 1.6; in that of VQNTWVILRKL, 4.43 ± 0.095. On the same count and under the same terms, in the case of IHYIPAFYRAKSILLFVYAC it was -0.241 ± 0.5; in that of FSISKLFGLNADTVHTRHKK, 0.073 ± 0.38; in that of LARDRFTYLAASYPFTPSRA, -0.761 ± 1.7. For the substance RWMELMALSRKTPGRQKARC, the amyloid nucleation score in data set [1] is -0.745 ± 1.5.

Turning to LIDRCWMAGRAFNLLMF, the amyloid nucleation score in data set [1] is -0.331 ± 0.76.

SVELGSGLMMWGTNSKLTVV came in with an amyloid nucleation score in data set [1] of 0.649 ± 0.76. For the substance YWILQV, the amyloid nucleation score in data set [1] is 0.299 ± 0.73. On the same count and under the same terms, in the case of DYTLMRSLESPITDLQSSSG it was 0.748 ± 0.88.
